From patent US20210301025A1 (published 2021)
Where a chain is given by its changes, count along the chain named. Like-named read-outs stand apart in the source and are kept apart here. Blank lines part the entries; values can stand above or below the binder they belong to.

Key:
[1] = molecular target: T1, human EGFR on cells (A431, NCI-H292, NCI-H322, NCI-H441) (human, UniProt P00533 25-1210); test: A431 cell binding, anti-His-Alexa488 fluorescence
T1 construct: Endogenous EGFR of human tumor cell lines; also called HER-1; Erb-B1
Procedure: A431 cells were plated at 5,000/well in opaque black 96-well plates and allowed to attach overnight at 37° C., in a humidified 5% CO₂ atmosphere. […] Supernatant was removed and cells were washed 3 times with 150 μL/well of FACS stain buffer. Cells were incubated with 50 μL/well of anti-penta His-Alexa488 antibody conjugate (Qiagen) diluted 1:100 in FACS stain buffer for 20 minutes at room temperature. Cells were washed 3 times with 150 μL/well of FACS stain buffer, after which wells were filled with 100 μL of FACS stain buffer and read for fluorescence at 488 nm using an Acumen eX3 reader. Data were plotted as raw fluorescence signal against the logarithm of the FN3 domain molar concentration and fitted to a sigmoidal dose-response curve with variable slope using GraphPad Prism 4 (GraphPad Software) to calculate EC₅₀ values.

[2] = molecular target: T1, human EGFR on cells (A431, NCI-H292, …); test: cell-based or functional assay
[3] = molecular target: T2, human c-Met on cells (NCI-H441, NCI-H292, U87-MG) (human, UniProt P08581 25-1390); test: cell-based or functional assay
[4] = molecular target: T3, recombinant human extracellular domain of EGFR fused to an IgG1 Fc (human, UniProt P00533 25-645); test: SPR (ProteOn) per Example 3
T3 construct: Bought (R&D Systems); captured on anti-human Fc IgG for SPR; also called EGFR-Fc
Description: (§1) Select EGFR/c-Met molecules were characterized for their affinity to both EGFR and c-Met, their ability to inhibit EGFR and c-Met autophosphorylation, and their effect on proliferation of HGF cells. Binding affinity of the bispecific EGFR/c-Met molecules to recombinant EGFR and/or c-Met extracellular domain was further by surface Plasmon resonance methods using a Proteon Instrument (BioRad) according to protocol described in Example 3.

[5] = molecular target: T4, recombinant c-Met extracellular domain (human, UniProt P08581 16-932); test: SPR (ProteOn) per Example 3
T4 construct: Construct used for SPR is not described further (may be the Fc chimera, as the protocol captures on anti-human Fc)
Description: as §1

[6] = molecular target: T2, human c-Met on cells (NCI-H441, …); test: cell-based or functional assay; remark: listed apart in the source
[7] = molecular target: T4, recombinant c-Met extracellular domain; test: SPR kinetic analysis as in Example 2
[8] = molecular target: T2, human c-Met on cells (NCI-H441, …); test: NCI-H441 cell binding, anti-His fluorescence
Procedure: Purified FN3 domains (50 μL/well; 0 to 1000 nM) were added to the cells for 1 hour at 4° C. in duplicate plates. Supernatant was removed and cells were washed three times with FACS stain buffer (150 μL/well, BD Biosciences, cat #554657). Cells were incubated with biotinylated-anti HIS antibody (diluted 1:160 in FACS stain buffer, 50 μL/well, R&D Systems, cat # BAM050) for 30 minutes at 4° C. Cells were washed three times with FACS stain buffer (150 μL/well), after which wells were incubated with anti mouse IgG1-Alexa 488 conjugated antibody (diluted 1:80 in FACS stain buffer, 50 μL/well, Life Technologies, cat # A21121) for 30 minutes at 4° C. Cells were washed three times with FACS stain buffer (150 μL/well) and left in FACS stain buffer (50 μL/well). Total fluorescence was determined using an Acumen eX3 reader. Data were plotted as raw fluorescence signal against the logarithm of the FN3 domain molar concentration and fitted to a sigmoidal dose-response curve with variable slope using GraphPad Prism 4 (GraphPad Software) to calculate EC₅₀ values.

[9] = molecular target: T5, Recombinant human c-Met Fc chimera (human, UniProt P08581 16-932); test: competition with biotinylated HGF on plate-coated c-Met-Fc
T5 construct: whole c-Met entry named; also called c-Met-Fc fusion protein

[10] = molecular target: T1, human EGFR on cells (A431, NCI-H292, …); test: A431 cell competition with biotinylated EGF
Procedure: A431 cells were plated at 5,000/well in opaque black 96-well plates and allowed to attach overnight at 37° C., in a humidified 5% CO₂ atmosphere. […] Cells were washed 3 times with 150 μL/well of FACS stain buffer. Cells were incubated with 50 μL/well of streptavidin-phycoerythrin conjugate (Invitrogen) diluted 1:100 in FACS stain buffer for 20 minutes at room temperature. Cells were washed 3 times with 150 μL/well of FACS stain buffer, after which wells were filled with 100 μL of FACS stain buffer and read for fluorescence at 600 nm using an Acumen eX3 reader. Data were plotted as the raw fluorescence signal against the logarithm of FN3 domain molar concentration and fitted to a sigmoidal dose-response curve with variable slope using GraphPad Prism 4 (GraphPad Software) to calculate IC₅₀ values.

B1: P54AR4-74 (designed binder, not shown: small tags and cut ends)
chain: LPAPKNLVVSEVTEDSLRLSWGYNGDHFDSFLIQYQESEKVGEAINLTVPGSERSYDLTGLKPGTEYTVSIYGVHNVYKDTNMRGLPLSAEFTT
- EC50 [1]: 77 nM

B2: ECB95 (designed binder, not shown: small tags and cut ends)
chain: MLPAPKNLVVSEVTEDSARLSWDDPWAFYESFLIQYQESEKVGEAIVLTVPGSERSYDLTGLKPGTEYTVSIYGVHNVYKDTNIRGLPLSAIFTTAPAPAPAPAPLPAPKNLVVSRVTEDSARLSWTAPDAAFDSFWIRYFEFVGSGEAIVLTVPGSERSYDLTGLKPGTEYVVNILGVKGGSISPPLSAIFTT
notes: Bispecific: P54AR4-83v22, (AP)5, P114AR9P121-A6v2
- pEGFR inhibition in H292 cells IC50 [2]: 13.6 nM
- pMet inhibition in H441 cells IC50 [3]: 179 nM
- Kd [4]: 1.1 nM
- Kd [5]: 6.2 nM

B7: ECB94 (designed binder, not shown: small tags and cut ends)
chain: B2 chain with V144L, S183K
notes: Bispecific: P54AR4-83v22, (AP)5, P114AR7P94-A3v22
- pEGFR inhibition in H292 cells IC50 [2]: 5.1 nM
- pMet inhibition in H441 cells IC50 [3]: 53.8 nM
- Kd [4]: 1 nM
- Kd [5]: 4.3 nM

B10: ECB15 (designed binder, not shown: small tags and cut ends)
chain: B2 chain with I84M, V144L, L177M, S183K
- pEGFR inhibition in H292 cells IC50 [2]: 4.2 nM
- Kd [4]: 0.2 nM
- Kd [5]: 2.6 nM

B11: P114AR7P92-F6 (designed binder, not shown: small tags and cut ends)
chain: LPAPKNLVVSRVTEDSARLSWTAPDAAFDSFWIRYFEFLGSGEAIVLTVPGSERSYDLTGLKPGTEYVVNILGVKGGGLSVPLSAIFTT
- Inhibition of proliferation of U87-MG cells IC50 [6]: 350 nM
- pMet inhibition in H441 cells IC50 [6]: 165 nM
- Kd [7]: 3.1 nM
- EC50 [8]: 4.9 nM
- IC50 [9]: 2.2 nM

B12: P114AR7P93-G8 (designed binder, not shown: small tags and cut ends)
chain: B11 chain with G60D, V68G, N70T, L72N, G78R, L79V, V81T
- Inhibition of proliferation of U87-MG cells IC50 [6]: 104 nM
- pMet inhibition in H441 cells IC50 [6]: 460 nM
- Kd [7]: 6.9 nM
- EC50 [8]: 3.8 nM
- IC50 [9]: 1 nM

B13: P114AR7P94-A3 (designed binder, not shown: small tags and cut ends)
chain: B11 chain with L72M, G78K, L79I, V81P
- Inhibition of proliferation of U87-MG cells IC50 [6]: 9.3 nM
- pMet inhibition in H441 cells IC50 [6]: 5 nM
- Kd [7]: 0.4 nM
- EC50 [8]: 1.4 nM
- IC50 [9]: 0.2 nM

B14: P114AR7P95-F10 (designed binder, not shown: small tags and cut ends)
chain: B11 chain with L39T, G40T, S41A, L72M, G78S, L79I, V81P
- Inhibition of proliferation of U87-MG cells IC50 [6]: 130 nM
- pMet inhibition in H441 cells IC50 [6]: 188 nM
- Kd [7]: 4.2 nM
- EC50 [8]: 4.4 nM
- IC50 [9]: 1.4 nM

B15: P114AR7P92-G8 (designed binder, not shown: small tags and cut ends)
chain: B11 chain with W32V, N70Q, G78Y, L79I, V81I
- Inhibition of proliferation of U87-MG cells IC50 [6]: 124 nM
- pMet inhibition in H441 cells IC50 [6]: 155 nM
- Kd [7]: 1 nM
- EC50 [8]: 5.9 nM
- IC50 [9]: 1.6 nM

B16: P114AR7P93-H9 (designed binder, not shown: small tags and cut ends)
chain: B11 chain with N70Q, L72I, G78H, L79I, V81L
- Inhibition of proliferation of U87-MG cells IC50 [6]: 270 nM
- pMet inhibition in H441 cells IC50 [6]: 288 nM
- Kd [7]: 3.3 nM
- EC50 [8]: 12.9 nM
- IC50 [9]: 2.9 nM

B17: P114AR7P94-E5 (designed binder, not shown: small tags and cut ends)
chain: B11 chain with V68A, L72M, G78R, L79V
- Inhibition of proliferation of U87-MG cells IC50 [6]: 196 nM
- pMet inhibition in H441 cells IC50 [6]: 124 nM
- Kd [7]: 4.2 nM
- EC50 [8]: 3.4 nM
- IC50 [9]: 0.7 nM

B18: P54AR4-81 (designed binder, not shown: small tags and cut ends)
chain: LPAPKNLVVSEVTEDSLRLSWDYDLGVYFDSFLIQYQESEKVGEAINLTVPGSERSYDLTGLKPGTEYTVSIYGVHNVYKDTNMRGLPLSAEFTT
- IC50 [10]: 121 nM
- EC50 [1]: 84 nM

Continued, values first:

- pEGFR inhibition in H292 cells IC50 [2]: 814 nM
- pMet inhibition in H441 cells IC50 [3]: 126 nM
- Kd [4]: 15.3 nM
- Kd [5]: 25.5 nM
B3: ECB108 (designed binder, not shown: small tags and cut ends)
chain: B2 chain with W26H, G145S, S146K, E148D
notes: Bispecific: P54AR4-83v23, (AP)5, P114AR9P122-A7v2

- pEGFR inhibition in H292 cells IC50 [2]: 367 nM
- pMet inhibition in H441 cells IC50 [3]: 53.3 nM
- Kd [4]: 16.7 nM
- Kd [5]: 5.1 nM
B4: ECB106 (designed binder, not shown: small tags and cut ends)
chain: B2 chain with W26H, V144L, S183K
notes: Bispecific: P54AR4-83v23, (AP)5, P114AR7P94-A3v22

- pEGFR inhibition in H292 cells IC50 [2]: 812 nM
- pMet inhibition in H441 cells IC50 [3]: 29.9 nM
- Kd [4]: 16.9 nM
- Kd [5]: 9 nM
B5: ECB107 (designed binder, not shown: small tags and cut ends)
chain: B2 chain with W26H
notes: Bispecific: P54AR4-83v23, (AP)5, P114AR9P121-A6v2

- pEGFR inhibition in H292 cells IC50 [2]: 24.7 nM
- pMet inhibition in H441 cells IC50 [3]: 835 nM
- Kd [4]: 1.6 nM
- Kd [5]: 22.1 nM
B6: ECB96 (designed binder, not shown: small tags and cut ends)
chain: B2 chain with G145S, S146K, E148D
notes: Bispecific: P54AR4-83v22, (AP)5, P114AR9P122-A7v2

- pEGFR inhibition in H292 cells IC50 [2]: 16.6 nM
- pMet inhibition in H441 cells IC50 [3]: 24.2 nM
- Kd [4]: 1.3 nM
- Kd [5]: 1.7 nM
B8: ECB97 (designed binder, not shown: small tags and cut ends)
chain: B2 chain with V144L, G178S
notes: Bispecific: P54AR4-83v22, (AP)5, P114AR7P95-C5v2

- pEGFR inhibition in H292 cells IC50 [2]: 432 nM
- pMet inhibition in H441 cells IC50 [3]: 26 nM
- Kd [4]: 17.3 nM
- Kd [5]: 2.1 nM
B9: ECB109 (designed binder, not shown: small tags and cut ends)
chain: B2 chain with W26H, V144L, G178S
notes: Bispecific: P54AR4-83v23, (AP)5, P114AR7P95-C5v2
